{"source": "patent US7364741B1", "about": "“Peptides of human Papilloma virus for use in human T cell response inducing compositions” (priority 1992, dated 2008)", "key": {"HLA-A2.1": {"target": "T1, HLA-A2.1 (Homo sapiens, UniProt P04439, D140Y/D185E/D98H/E176V/E277Q/G131W/G231S/I119V/I121R/I166T/I218V/L300P/L318F/N151K/N90K/P208A/P217A/Q86G/Q94H/R138H/R169H/T345S)", "T1 construct": "endogenous in cells; host or cells: 174CEM.T2", "format": "cell-based", "details": "HPV16 peptides, 200 μg/ml peptide, 16 hours, 174CEM.T2 cells", "experimental": "Of all peptides a dilution of 1 mg/ml in 0.9% NaCl was made.\n174CEM.T2 cells were cultured in Iscovel's modified Dulbecco's medium (Biochrom KG Seromed Berlin, Germany: F0465) supplemented with 100 IU/ml penicillin (Biocades Pharma, Leiderdorp, The Netherlands), 100 μg/ml kanamycin (Sigma St. Louis, USA:K-0254), 2 mM glutamine (ICN Biomedicals Inc. Costa Mesa, Calif., USA:15-801-55) and 10% fetal calf serum (FCS, Hyclone Laboratories Inc. Logan, Utah, USA:A-1115-L). Cells were cultured at a density of 2.5×10^5/ml during 3 days at 37° C., 5% CO2 in humified air.\n174CEM.T2 cells were washed twice in culture medium without FCS and put in serum-free culture medium to a density of 2×10^6 cells/ml. Of this suspension 40 μl was put into a V bottomed 96 well plate (Greiner GmbH, Frickenhausen, Germany: 651101) together with 10 μl of the individual peptide dilutions (of 1 mg/ml). The end concentration is 200 μg/ml peptide with 8×10^4 174CEM.T2 cells. This solution was gently agitated for 3 minutes after which an incubation time of 16 hours at 37° C., 5% CO2 in humified air took place. Then cells were washed once with 100 μl 0.9% NaCl, 0.5% bovine serum albumin (Sigma St. Louis, USA: A-7409), 0.02% NaN3 (Merck Darmstadt, Germany:822335). After a centrifuge round of 1200 rpm the pellet was resuspended in 50 μl of saturating amounts of HLA-A2.1 specific mouse monoclonal antibody BB7.2 for 30 minutes at 4° C. Then cells were washed twice and incubated for 30 minutes with F(ab)2 fragments of goat anti-mouse IgG that had been conjugated with […] (Tago Inc Burlingame, Calif., USA: 4350) in a dilution of 1:40 and a total volume of 25 μl.\nAfter the last incubation, cells were washed twice and fluorescence was measured at 488 nanometer on a FACScan flow-cytometer (Becton Dickinson, Franklin Lakes, N.J., USA).\nThe 174CEM.T2 cell line expresses “empty” and unstable HLA-A2.1 molecules that can be stabilized when a peptide is binding to the peptide presenting groove of these molecules. […] This leads to an increase in cell surface expression of the HLA-A2.1 molecule.\nWith background fluorescence level (without adding peptides) set on a Fluorescence Index level of 0, binding of a peptide was regarded positive when the level of fluorescence was ≧0.5."}, "[1]": {"test_system": "MLDLQPETT-sensitized T2 cells", "assay": "In vitro induction of primary CTL response and cytotoxicity assay on peptide-sensitized T2 cells", "format": "cell-based, human", "details": "PBL of HLA-A2.1 donor stimulated with 80 μg/ml peptide; cytotoxicity assay on day 49; background: T2 with irrelevant peptide ATELQTTIH", "experimental": "The expression of HLA-A2.1 on 174CEM.T2 cells (T2) is increased by incubating T2 cells in medium containing relevant peptide. T2 cells will present the relevant peptide bound to HLA-A2.1 in high amount and therefore are good antigen presenting cells (APC). In the response inducing method described below the T2 cell line is used as APC and post-Ficoll mononuclear cells are used as responder cells.\nT2 cells in a concentration of 2×10^6 cells per ml were incubated for 13 h at 37° C. in a T 25 flask (Becton Dickinson, Falcon, Plymouth Engeland cat.nr. 3013) in serum-free IMDM (=Iscoves Modified Dulbecco's Medium: Biochrom KG, Seromed Berlin, Germany, cat.nr. F0465) with glutamine (2 mM, ICN Biochemicals Inc., Costa Meisa, USA, cat.nr. 15-801-55), antibiotics (100 IU/ml penicilline (Brocades Pharma, Leiderdorp, The Netherlands, 100 μg/ml kanamycine (Sigma, St. Louis, USA, K-0245)) and the selected peptide […] (=JWK3; SEQ ID NO:15) in a concentration of 80 μg/ml.\nThese incubated T2 cells were spun down and subsequently treated in a density of 20×10^6 cells/ml with Mitomycine C (50 μg/ml) in serum-free RPMI (Gibco Paislan, Scotland, cat.nr. 041-02409) medium for 1 h at 37° C. Hereafter the T2 cells were washed three times in RPMI. […]"}}}
{"sequence": "MLDLQPETT [HPV16 peptide 13, residues 12-20 of HPV16 protein E7]", "values": [{"measurement": "MF (mean HLA-A2.1 fluorescence)", "setting": "HLA-A2.1", "result": 217.6}, {"measurement": "FI (Fluorescence Index)", "setting": "HLA-A2.1; background set on 0, binding positive when ≧0.5", "result": 2.3}, {"measurement": "specificity of killing by peptide-induced bulk CTL culture", "setting": "[1]", "result": "seemed to be specific for killing MLDLQPETT (SEQ ID NO:15)-sensitized T2 cells"}]}
